Reference: the supplement of paper PMC10567573

B1: NCF4 (parent)
chain: FVKILKDFPEEDDPTNWLRCYYYE
B2: DCAF4 (parent)
chain: PGIDRPGMLCSFRIPGAWSCAWSL

Variants of: B1
Assay: protein stability index of a GFP-peptide fusion (GPS, HEK-293T) (PSI 1-6); higher = more stable
Details: c terminus: a fixed tail appended
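Note: lentivirally expressed fusions sorted by FACS into six bins by GFP to DsRed ratio, PSI derived from sequencing read proportions per bin multiplied by bin number.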

Variant	protein stability index
FVKILKDKPEEDDPTNWLRCYYYE	1.8
FVKILKDQPEEDDPTNWLRCYYYE	1.67
FVKILKDWPEEDDPTNWLRCYYYE	3.2
FVKILKDGPEEDDPTNWLRCYYYE	1.18
FVKILKDCPEEDDPTNWLRCYYYE	1.25
FVKILKDVPEEDDPTNWLRCYYYE	2.59
FVKILKDEPEEDDPTNWLRCYYYE	1.14
FVKILKDIPEEDDPTNWLRCYYYE	1.25
FVKILKDLPEEDDPTNWLRCYYYE	1.15
FVKILKDPPEEDDPTNWLRCYYYE	1.68
FVKILKDRPEEDDPTNWLRCYYYE	1.69
FVKILKDMPEEDDPTNWLRCYYYE	3.67
FVKILKDYPEEDDPTNWLRCYYYE	4.09
FVKILKDHPEEDDPTNWLRCYYYE	3.3
FVKILKDSPEEDDPTNWLRCYYYE	2.92
FVTILKDFPEEDDPTNWLRCYYYE	2.48
FVRILKDFPEEDDPTNWLRCYYYE	1.17
FVSILKDFPEEDDPTNWLRCYYYE	2.32
FVPILKDFPEEDDPTNWLRCYYYE	2.45
FVNILKDFPEEDDPTNWLRCYYYE	2.31
FVDILKDFPEEDDPTNWLRCYYYE	2.11
FVCILKDFPEEDDPTNWLRCYYYE	1.26
FVYILKDFPEEDDPTNWLRCYYYE	1.01
FVEILKDFPEEDDPTNWLRCYYYE	2
FVQILKDFPEEDDPTNWLRCYYYE	2.05
FVAILKDFPEEDDPTNWLRCYYYE	2.19

Variant	protein stability index
FVHILKDFPEEDDPTNWLRCYYYE	1.43
FAKILKDFPEEDDPTNWLRCYYYE	1.88
FTKILKDFPEEDDPTNWLRCYYYE	2.4
FGKILKDFPEEDDPTNWLRCYYYE	2.24
FDKILKDFPEEDDPTNWLRCYYYE	2.05
FMKILKDFPEEDDPTNWLRCYYYE	1.96
FQKILKDFPEEDDPTNWLRCYYYE	3.03
FPKILKDFPEEDDPTNWLRCYYYE	2.82
FWKILKDFPEEDDPTNWLRCYYYE	3.35
FEKILKDFPEEDDPTNWLRCYYYE	3.02
FKKILKDFPEEDDPTNWLRCYYYE	2.16
FSKILKDFPEEDDPTNWLRCYYYE	1.62
FHKILKDFPEEDDPTNWLRCYYYE	1.57
FLKILKDFPEEDDPTNWLRCYYYE	1.76
FCKILKDFPEEDDPTNWLRCYYYE	1.95
FYKILKDFPEEDDPTNWLRCYYYE	2.08
FNKILKDFPEEDDPTNWLRCYYYE	2.11
FIKILKDFPEEDDPTNWLRCYYYE	1.46
FRKILKDFPEEDDPTNWLRCYYYE	2.38
TVKILKDFPEEDDPTNWLRCYYYE	2.6
IVKILKDFPEEDDPTNWLRCYYYE	2.09
RVKILKDFPEEDDPTNWLRCYYYE	2.25
AVKILKDFPEEDDPTNWLRCYYYE	1.99
VVKILKDFPEEDDPTNWLRCYYYE	2.21
HVKILKDFPEEDDPTNWLRCYYYE	2.7
LVKILKDFPEEDDPTNWLRCYYYE	2.17

Variant	protein stability index
WVKILKDFPEEDDPTNWLRCYYYE	3.29
SVKILKDFPEEDDPTNWLRCYYYE	2.55
QVKILKDFPEEDDPTNWLRCYYYE	2.56
MVKILKDFPEEDDPTNWLRCYYYE	2.11
NVKILKDFPEEDDPTNWLRCYYYE	2.96
PVKILKDFPEEDDPTNWLRCYYYE	2.05
KVKILKDFPEEDDPTNWLRCYYYE	2.68
CVKILKDFPEEDDPTNWLRCYYYE	1.46
FVKIYKDFPEEDDPTNWLRCYYYE	2.23
FVKIHKDFPEEDDPTNWLRCYYYE	3.08
FVKIPKDFPEEDDPTNWLRCYYYE	2.95
FVKIIKDFPEEDDPTNWLRCYYYE	1.6
FVKIFKDFPEEDDPTNWLRCYYYE	1.86
FVKIDKDFPEEDDPTNWLRCYYYE	2.1
FVKIEKDFPEEDDPTNWLRCYYYE	1.96
FVKIRKDFPEEDDPTNWLRCYYYE	2.09
FVKINKDFPEEDDPTNWLRCYYYE	1.68
FVKIWKDFPEEDDPTNWLRCYYYE	1.06
FVKIAKDFPEEDDPTNWLRCYYYE	1.02
FVKITKDFPEEDDPTNWLRCYYYE	2.17
FVKILKDFPDEDDPTNWLRCYYYE	1.16
FVKILKDFPMEDDPTNWLRCYYYE	2.93
FVKILKDFPVEDDPTNWLRCYYYE	1.62
FVKILKDFPREDDPTNWLRCYYYE	1.7
FVKILKDFPTEDDPTNWLRCYYYE	2.6
FVKILKDFPSEDDPTNWLRCYYYE	1.77

Variant	protein stability index
FVKILKDFPAEDDPTNWLRCYYYE	1.47
FVKILKDFPQEDDPTNWLRCYYYE	2.48
FVKILKDFPIEDDPTNWLRCYYYE	3.14
FVKILKDFPELDDPTNWLRCYYYE	2.74
FVKILKDFPEDDDPTNWLRCYYYE	1.88
FVKILKDFPETDDPTNWLRCYYYE	2.96
FVKILKDFPEADDPTNWLRCYYYE	1.68
FVKILKDFPEFDDPTNWLRCYYYE	3.95
FVKILKDFPEHDDPTNWLRCYYYE	3.15
FVKILKDFPESDDPTNWLRCYYYE	1.71
FVKILKDFPEMDDPTNWLRCYYYE	1.01
FVKILKDFPEYDDPTNWLRCYYYE	1.96
FVKILKDFPEWDDPTNWLRCYYYE	2.04
FVKILKDFPEKDDPTNWLRCYYYE	1.39
FVKILKDFPERDDPTNWLRCYYYE	1.75
FVKILKDFPEIDDPTNWLRCYYYE	2.4
FVKILKDFPEQDDPTNWLRCYYYE	2.98
FVKILNDFPEEDDPTNWLRCYYYE	3.4
FVKILTDFPEEDDPTNWLRCYYYE	1.95
FVKILQDFPEEDDPTNWLRCYYYE	1.97
FVKILFDFPEEDDPTNWLRCYYYE	2.93
FVKILLDFPEEDDPTNWLRCYYYE	1.96
FVKILEDFPEEDDPTNWLRCYYYE	2.5
FVKILMDFPEEDDPTNWLRCYYYE	1.65
FVKILVDFPEEDDPTNWLRCYYYE	3.01
FVKILSDFPEEDDPTNWLRCYYYE	3.11

Variant	protein stability index
FVKILRDFPEEDDPTNWLRCYYYE	1.17
FVKILIDFPEEDDPTNWLRCYYYE	1.37
FVKILPDFPEEDDPTNWLRCYYYE	1.56
FVKILDDFPEEDDPTNWLRCYYYE	1.96
FVKILKDFPEEKDPTNWLRCYYYE	1.41
FVKILKDFPEETDPTNWLRCYYYE	1.37
FVKILKDFPEEYDPTNWLRCYYYE	2.35
FVKILKDFPEEGDPTNWLRCYYYE	2.33
FVKILKDFPEEHDPTNWLRCYYYE	1.52
FVKILKDFPEECDPTNWLRCYYYE	2.14
FVKILKDFPEEEDPTNWLRCYYYE	2.04
FVKILKDFPEEPDPTNWLRCYYYE	1.03
FVKILKDFPEEQDPTNWLRCYYYE	2.75
FVKILKDFPEESDPTNWLRCYYYE	2.4
FVKILKDFPEEMDPTNWLRCYYYE	2.39
FVKILKDFPEEDCPTNWLRCYYYE	1.96
FVKILKDFPEEDVPTNWLRCYYYE	1.53
FVKILKDFPEEDRPTNWLRCYYYE	1.66
FVKILKDFPEEDQPTNWLRCYYYE	2.12
FVKILKDFPEEDGPTNWLRCYYYE	1.04
FVKILKDFPEEDTPTNWLRCYYYE	2.72
FVKILKDFPEEDEPTNWLRCYYYE	2.69
FVKILKDFPEEDSPTNWLRCYYYE	2.46
FVKILKDFPEEDFPTNWLRCYYYE	3.57
FVKILKDFPEEDWPTNWLRCYYYE	3.15
FVKILKDFPEEDMPTNWLRCYYYE	3.83

Variant	protein stability index
FVKILKDFPEEDYPTNWLRCYYYE	2.81
FVKILKDFPEEDPPTNWLRCYYYE	1.4
FVKILKDFPEEDIPTNWLRCYYYE	1.29
FVKILKDFPEEDHPTNWLRCYYYE	2.54
FVKILKDFKEEDDPTNWLRCYYYE	1.37
FVKILKDFDEEDDPTNWLRCYYYE	1.85
FVKILKDFREEDDPTNWLRCYYYE	1.6
FVKILKDFNEEDDPTNWLRCYYYE	2.15
FVKILKDFAEEDDPTNWLRCYYYE	2.67
FVKILKDFTEEDDPTNWLRCYYYE	1.73
FVKILKDFMEEDDPTNWLRCYYYE	2.75
FVKILKDFWEEDDPTNWLRCYYYE	1.27
FVKILKDFFEEDDPTNWLRCYYYE	1.1
FVKILKDFCEEDDPTNWLRCYYYE	1.26
FVKILKDFEEEDDPTNWLRCYYYE	1.74
FVKILKDFIEEDDPTNWLRCYYYE	1.65
FVKILKDFVEEDDPTNWLRCYYYE	2.21
FVKILKDFYEEDDPTNWLRCYYYE	1.38
FVKILKQFPEEDDPTNWLRCYYYE	1.07
FVKILKPFPEEDDPTNWLRCYYYE	2.49
FVKILKVFPEEDDPTNWLRCYYYE	2.69
FVKILKHFPEEDDPTNWLRCYYYE	1.77
FVKILKWFPEEDDPTNWLRCYYYE	1.07
FVKILKLFPEEDDPTNWLRCYYYE	2.16
FVKILKEFPEEDDPTNWLRCYYYE	1
FVKILKCFPEEDDPTNWLRCYYYE	4.49

Variant	protein stability index
FVKILKDFPEEDDCTNWLRCYYYE	1.19
FVKILKDFPEEDDDTNWLRCYYYE	2.76
FVKILKDFPEEDDFTNWLRCYYYE	1.24
FVKILKDFPEEDDATNWLRCYYYE	2.72
FVKILKDFPEEDDGTNWLRCYYYE	2.52
FVKILKDFPEEDDETNWLRCYYYE	3.08
FVKDLKDFPEEDDPTNWLRCYYYE	1.25
FVKNLKDFPEEDDPTNWLRCYYYE	2.76
FVKMLKDFPEEDDPTNWLRCYYYE	2.39
FVKWLKDFPEEDDPTNWLRCYYYE	3.72
FVKALKDFPEEDDPTNWLRCYYYE	1.61
FVKFLKDFPEEDDPTNWLRCYYYE	3.08
FVKGLKDFPEEDDPTNWLRCYYYE	1.9
FVKLLKDFPEEDDPTNWLRCYYYE	2.02
FVKTLKDFPEEDDPTNWLRCYYYE	1.54
FVKPLKDFPEEDDPTNWLRCYYYE	2.15
FVKQLKDFPEEDDPTNWLRCYYYE	2.15
FVKELKDFPEEDDPTNWLRCYYYE	1.65
FVKKLKDFPEEDDPTNWLRCYYYE	3.09
FVKHLKDFPEEDDPTNWLRCYYYE	2.17
FVKSLKDFPEEDDPTNWLRCYYYE	2.7

Variants of: B2
Assay: as above
Details: c terminus: a fixed tail appended

Variant	protein stability index
PGIDRPGMLCSFRIPGAWSCAWSP	2.03
PGIDRPGMLCSFRIPGAWSCAWSV	2.71
PGIDRPGMLCSFRIPGAWSCAWSQ	1.31
PGIDRPGMLCSFRIPGAWSCAWSW	3.59
PGIDRPGMLCSFRIPGAWSCAWSY	1.96
PGIDRPGMLCSFRIPGAWSCAWSS	2.15
PGIDRPGMLCSFRIPGAWSCAWST	3.74
PGIDRPGMLCSFRIPGAWSCAWSK	2.42
PGIDRPGMLCSFRIPGAWSCAWSR	1.47
PGIDRPGMLCSFRIPGAWSCAWSI	2.42
PGIDRPGMLCSFRIPGAWSCAWSN	2.87
